Assay: yeast display, Sf9 membrane polyspecificity reagent, FACS + sequencing; frameworks hold sequencing errors
How it was run: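 Galactose induction of a Saccharomyces cerevisiae BJ5465 synthetic nanobody display library ran 36–48 hours. The cells were then stained for 1 hour at 4 °C with 10% biotinylated, detergent-solubilized Sf9 membrane reagent, pulled down on streptavidin microbeads and FACS-sorted into low and high (top ~1%) gates on expression and reagent-binding fluorescence. Labels for polyreactivity follow the gate of origin.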

| Sequence | polyreactivity (PSR sort gate) |
| --- | --- |
| QVQLVESGGGLVQAGGSLRLSCAASGFTFDAYAMGWYRQAPGKERELVADINYSVGSTTYADSVKVRFTISRDNAKNTVYLQMNSLKPEDTAVYYCAAQGTWYAWDYDYWGQGTQVTVSS | low polyreactivity |
| QVQLVESGGCLVQAGGSLRLSCAASGYIFQWYDMGWYRPAPGKERELVAAISVTTGSTYYADSVKGRFTISRDNAQKTVYLQMNSLKPEDTAVYYCAAVSWYRHDMYYWGHGTQVTVSS | low polyreactivity |
| QVQLVESGGGLVQAGGSLRLSCADSGLIFRHYAMGWYRQAPGKERELVASISYRGGSTYYADSVKGRFTISRDNPKNTVYLQMNSLKPEDTAVDYCAADTYYPTYWSVTYGYDYWGQGTQVTVSS | low polyreactivity |
| QIQLVESGGGIVQAGGSLRLSCAASGFIFNTYDMGWYRQAPGKEMELVAVITSGGTTNYADSVKGRFTISRDNAKNTVYLQINCLKPEDTAVYSCNRDSVLDPGNPKPYVFDYWGQGTQVTVSS | low polyreactivity |
| QLQLVESGGGLFQAGGSLRLSCAPSGFIFTAYTMGWYRQAHGKESELVAAIDSGGGTYYADYVKGRFTISRYNAKNTVYLQIHSLKPDDTAVYYCAADPAKSRAGDFDYWGQGTQVTVSS | high polyreactivity |
| QVQLVESGGGLVQAGASLRLSCAASGSTFKYYTMGWYRQAPGKERELVAAISFSGARTYYADSVKGRFTISRDNAKNTVYLQMNSLKPEDTAVYYCAKDRQYYYWGQGTQVTVSS | high polyreactivity |
| QVQLVESGGGLVQAGGSLRLSCAASGSTFGSNAMGWYRQAPGKERELVAAIRGIVGSTYYADSVKGRFTISRDNAKNTVYLQMNSLKPEDTAVYYCNKAEVSTYYHTRSTYGGYDYWGQGTQVTVSS | low polyreactivity |
| QVQLVESGGGLVQAGGSLRLSCAASGRIFFLNTMGWYRQAPGTERELVAAITRGGSTYYADSVKGRFTISRDNAKNTVYLQMNSLKPEDTAVYYCAADVYGGIGYDYWGQGTQVTVSS | low polyreactivity |
| QVQLVESGGGLVQAGGSLRLSCAASGFTLFFHAMGWYRQAPGKERELVATISERGDSTYYADSVKGRFTISRDNAKNTVYLQMNSLKPEDTAVYYCAAVGTYSSYGYWGQGTQVTVSS | high polyreactivity |
| QVQLVESGGGLVQAGGSLRLSCAASGFIFRYNAMGWYRQAPGKERELVAAISWNGGRTYYADSVKGRFTISRDNAKNTVYLQMNSLKPEDTAVYYCAAELSSYFFSAGYDYWGQGTQVTVSS | high polyreactivity |
| QVQLVESGGGLVQAGGSLRLSCAASGSTFAAKAMGWYRHAPGKERELVAAITSSGGSTYYADSVKGRFTISRDNAKNTVYLQMNSLKPEDTAVYYCNKDNERYVRIYDSWGQGTQVTVAS | low polyreactivity |
| QVQLVESGGGLVQAGGSLRLSCAASGSTFASYAMGWYRQAPGKQRELVAAITDSGGSTYYADSVKGRFTISRDNAKNTVYLQMNSLKPEDTAVSYCAAYGRYFSYHDYDYWGQGTQVTVSS | low polyreactivity |
| QCQREESGGGLVQAGGRLRLSCAASGLILIYYAMGWYRQAPGKERELVAAITSSGGSTYYADSVKGRFTISRDNAKNTVYLQMNSLKREDTAVYYCAAYYSGDGYYWGQGTQVTVSS | high polyreactivity |
| QVQLVESGGGLVQAGGSLRLSCSDSGSTFPYHAMGWYRPAPGKERELVAAIDSSDGITYYADSVKGRFTISRDNAKNTVYLQMNRLKPEDTAVYYCAAEDYEAGYDFWGQGTQVTVSS | high polyreactivity |
| QVQLVESGGGLVQAGGSLRLSCAASGSTFTGNAMGWYRQAPGKERELVAAISRSGGSTFYADSVKGRFTISRDNAKYTVYLQMNSLKAEDTAVYYCATRYVVDMDYWGQGTQVTVSW | high polyreactivity |
| QVQLVESGGGLVQAGGSLRLSCAASGRILLRNVMGLYRPAPGKERELVAVITRTGITYYADSVKGRFTISRDNAKNTVYLQMISLNPEDTAVYYCAAGLPTYEHDYWGQGTQVTVSS | low polyreactivity |
| QVWLQESGGGLVQACGSLRLSCAASGTISRDIFMGWYRQAPGKEREFVATIAQGGITNYADSVKGRFTISRDNAKNTLYLQMNSVKPGDTAVYYCAARDGNCYWFYYWGQGTQVTVSS | high polyreactivity |
| QVQLVESGGGLVQAGGSLRLSCDASGRTFYFYVMGWYRQAPGKERELVARISWSGGSTYYADSVKGRFTISRDNAKNTVYLQMNSLKPEDTAVYYCARQYKYPSSGEYDSWGQGTQVTVSS | low polyreactivity |
| QVQLVESGGGLVQAGGSLRLSCAASGRIFDIYAMGWYRQAPGKERELVAGITWRAGSTYYADSVKGRFTISRDNAKNTVYLQMNSLKPEDTAVYYCAAEVWVTDPYWGDFYYWGHGTQVTVSS | low polyreactivity |
| QVQLVESGGGLVQAGGSLRLSCAASGITFVHYAMGWYRQAPGKERELVASITRRGGSTYYADSVKGRFTISRDNAKNTVYLQMHSLKPEDTAVYYCAARWSAWSGYIFDYWGQGTQVTVSS | high polyreactivity |
| QVHLVESGGGLVQAGGSLRLSCAASGRIFGRYAMGWYRQAPGKERELVARITTSGGSTSYADSVKGRFTISRDNAKNTVYLQMNSLKPEDTAVYYCAADRARYYSEYDYWGQGTQVTVSS | low polyreactivity |
| QVQLVESGGGLVQAGGSLRLSSAGSGSIFRVYALGWYRQAPGKERELVAVISIAGRTNYADSVKGRFTISRDNAKNTVYLQMNSLKPEDTAVYYCNAGGDGVATGYDYWGQGTQVTVSS | low polyreactivity |
